Kd data for nine molecules are collected here from US20240343820A1.

For the test, the target named is anti-CD20 scFv-14. In words: Octet (BLI) equilibrium binding, hybridoma supernatant; antigen format not stated. For orientation: BLI is a label-free optical method that tracks binding on a fibre tip over time.

B1: 24C12 (antibody, V domains shown)
VH: QVQLQQSGAELMKPGASVKLSCKATGHTFTGYWIEWVKQRPGHGLEWIGEILPGSGSTNYNEKFKGKATFTADTSSNTAYMQLSSLTTEDSAIYYCAREGFAYWGQGTLVTVSA
VL: DIVMTQSHKFMSTSVGDRVSITCKASQDVGIAVAWYQQKPGQSPKLLIYWASTRHTGVPDRFTGSGSGTDFTLTISNVQSEDLADYFCQQYSSYPYTFGGGTKLEIK
What is called Kd is the free concentration of one partner at which half of the binding sites on the other are occupied at equilibrium, for simple one-to-one binding. The molecule B1 registered a Kd of 0.00138 nM.

B2: 23E1 (antibody, V domains shown)
VH: EVQLQQSGPVLVKPGPSVKISCKASGFTFTDYYMHWVKQSHGKSLEWIGLVYPYNGGTSYNQKFKGKATLTVDTSSSTAYMELNSLTSEDSAVYYCARRGQRVWYFDVWGTGTTVTVSS
VL: DIQMTQSPSSLSASLGGKVTITCKASQDINKYIAWYQHKPGKGPRLLIHYTSTLQPGIPSRFSGSGSGRDYSFSISNLEPEDIATYYCLQYDNLYTFGGGTKLEIK
B2 returned a Kd of 3.28 nM.

B3: 25B2 (antibody, V domains shown)
VH: QIQLVQSGPELKKPGETVKISCKASGYTFTTYGMSWVKQAPGKGLKWMGWINTYSGVPTYADDFKGRFAFSLETSASTAYLQINNLKNEDTATYFCARTYYGNYFDYWGQGTTLTVSS
VL: DIQMTQSPSSLSASLGGKVTITCKASQDINKYIAWYQHKPGKGPRLLIHYTSTLQPGIPSRFSGSGSGRDYSFSISNLEPEDIATYYCLQYDNLYTFGGGTKLEIK
Consider B3, for which the Kd turned out to be 0.382 nM. This Kd lies about 8.6-fold lower than the previous one.

B4: 23C11 (antibody, V domains shown)
VH: QVQLQQPGAELVRPGSSVKLSCKASGYTFTSYWMHWVKQRPIQGLEWIGNIDPSDSETHYNQKFKDKATLTVDKSSSTAYMQLSSLTSEDSAVYYCARAGRVFYYAMDYWGQGTSVTVSS
VL: DIQMTQTTSSLSASLGDRVTISCRASQDISNYLNWYQQKPDGTVKLLIYYTSRLHSGVPSRFSGSGSGTDYSLTISNLEQEDIATYFCQQGNTLYTFGGGTKLEIK
With B4, the Kd came to 3.72 nM.

B5: 24C7 (antibody, V domains shown)
VH: QVQLQQSGPELVKPGASVKISCKASGYSFTSYYIHWVKQRPGQGLEWIGWIYPGSGNTKYNEKFKGKATLTADTSSSTAYMQLSSLTSEDSAVYYCARCVLLDYFDYWGQGTTLTVSS
VL: DIQMTQSPSSLSASLGERVSLTCRASQEISGYLSWLQQKPDGTIKRLIYAASTLDSGVPKRFSGSRSGSDYSLTISSLESEDFADYYCLQYASYPYTFGGGTKLEIK
For B5, the Kd turned out to be 3.9 nM. The Kd values of the last two molecules are within 1.5-fold of each other.

B6: 25F10 (antibody, V domains shown)
VH: QVHLQQSGPELVKPGASVKISCKASGYSFTSYYIHWVKQRPGQGLEWIGWIYPRSGNTNYNEKFKDKATLAADTSSSAAYMQLSSLTSEDSAVYYCGRSDFYYGSDYWGQGTTLTVSS
VL: DIQMTQSPSSLSASLGERVSLTCRASQEISGYLGWLQQKPDGTIKRLIYAASTLDSGVPRRFSGSRSGSDYSLTFSSLESEDFADYYCLQYASYPWTFGGGTKLEIK
On to B6, for which the Kd was 0.00408 nM.

B7: 22H5 (antibody, V domains shown)
VH: DVQLQESGPGMVKPSQSLSLTCTVTGYSITSGYDWHWIRHFPGNKLEWMGYISYSGSTNYNPSLKSRISITHDTSKNHFFLKLNSVTTEDTATYYCAREGYSNYFDSWGQGTTLTVSS
VL: SIVMTQTPKFLLVSAGDRVTITCKASQSVSNDVAWYQQKPGQSPKLLIFYASNRYTGVPDRFTGSGYGTDFTFTISTVQAEDLAVYFCQQDYSSPLAFGAGTKLELK
For the molecule B7, the Kd was determined as 0.633 nM.

B8: 29F8 (antibody, V domains shown)
VH: QIQLVQSGPELKKPGETVKISCKASGYTFTTYGMSWVKQAPGKGLKWMGWINTYSGVPTYADDFKGRFAFSLETSASTAYLQINNLKNEDSATYFCARYYYGSNYDYWGQGTTLTVSS
VL: DIQMTQSPASLSASVGETVTITCRASENIYSYLAWYQQKQGKSPQLLVNNAKTLAEGVPSRFSGSGSGTQFSLKINSLQPEDFGSYYCQHHYGSPPTFGSGTKLEIK
Turning to B8, the Kd was determined as 0.00131 nM. This Kd lies about 480-fold lower than the previous one.

B9: 29F1 (antibody, V domains shown)
VH: QIQLVQSGPELKKPGETVKISCKASGYTFTTYGMSWVKQAPGKGLKWMGWINTYSGVPTYADDFKGRFAFSLETSASTAYLQINNLKNEDTATYFCARFYYGSSFDYWGQGTTLTVSS
VL: DIQMTQSPASLSASVGETVTITCRASENIYSYLAWYQQKQGKSPQLLVYNAKTLAEGVPSRFSGSGSGTQFSLKINSLQPEDFGSYYCQHHYGTPLTFGAGTKLELK
For the molecule B9, the Kd is 0.0534 nM.
